The numbers were not newly measured in patent US20230142365A1, “POLY(SARCOSINE) POLYMER EXCIPIENTS” (CALUSA BIO, LLC, priority 2021, published 2023), which cites them from elsewhere.

The test system of this series is anti-drug antibodies (ADAs). The conditions noted are these: share of anti-drug antibodies against the TNF blocker that are neutralizing; van Schie et al. 2015.

Turning to “infliximab: tumor necrosis factor (TNF) blocker Remicade (infliximab)”, the ADAs neutralizing is recorded as 90%.

For the substance adalimumab, the ADAs neutralizing is listed as 97%.
